The source of these data is publication PMC10696041.

This assay deals with mini-procollagen III. In words: SPR. The following applies: 50 nM CUB1CUB2*, read off a plot; for response: immobilized mini-procollagen III (437 RU), parent: est. 31; for percent of parent (% binding / WT): immobilized mini-procollagen III (437 and 651 RU), parent: est. 100.

Sequence of CUB1CUB2* domains of PCPE-2, WT (from MBP-CUB1CUB2, MBP removed) (Q9UKZ9 whole entry, looked up, stated change not applied, tested part not stated): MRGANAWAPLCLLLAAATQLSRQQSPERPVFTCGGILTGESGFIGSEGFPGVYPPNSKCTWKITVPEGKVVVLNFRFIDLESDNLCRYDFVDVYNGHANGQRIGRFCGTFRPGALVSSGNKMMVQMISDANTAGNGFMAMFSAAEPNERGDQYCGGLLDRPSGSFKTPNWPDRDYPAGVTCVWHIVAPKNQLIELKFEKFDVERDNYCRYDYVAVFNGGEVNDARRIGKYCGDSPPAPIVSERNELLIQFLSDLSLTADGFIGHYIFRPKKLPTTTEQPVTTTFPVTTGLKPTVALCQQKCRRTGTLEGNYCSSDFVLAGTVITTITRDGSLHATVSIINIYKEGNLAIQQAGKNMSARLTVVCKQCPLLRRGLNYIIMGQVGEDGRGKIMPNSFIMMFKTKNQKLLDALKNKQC

Regarding “CUB1CUB2* domains of PCPE-2, WT (from MBP-CUB1CUB2, MBP removed) (from UniProt Q9UKZ9) F87A”, the response worked out at 1 RU and the percent of parent (% binding / WT) stood at 2.

As for “CUB1CUB2* domains of PCPE-2, WT (from MBP-CUB1CUB2, MBP removed) (from UniProt Q9UKZ9) R150A”, the response was 27 RU and the percent of parent (% binding / WT) came to 97.

For the substance “CUB1CUB2* domains of PCPE-2, WT (from MBP-CUB1CUB2, MBP removed) (from UniProt Q9UKZ9) K46A; E197A; R220A”, the response was 8.5 RU and the percent of parent (% binding / WT) is 22.
